Kd and stoichiometry N data for eight substances are collected here from PMC3664699.

The target in assay [1] is GluA2L. Briefly: AUC.
In assay [2] the target is GluA2S-FAM. Briefly: AUC.
For assay [3], the target named is EndoH-DyLight (GluA2 ATD, EndoH-digested, DyLight-labeled). Briefly: fluorescence polarisation.
Assay [4] has as its target GluA2 ATD, GnTI−. Briefly: AUC.
The target in assay [5] is GluA2S, GluA2 ATD with complex glycosylation (293T). Briefly: AUC.
The target is the same in assay [6]. Briefly: AUC. This is another data set of the same source.
The target of assay [7] is EndoH-digested, FAM-labeled GluA2S. Briefly: AUC.
The target is the same in assay [8]. Briefly: AUC. This is another data set of the same source.
For assay [9] the target is unchanged. Briefly: AUC. The source holds these as a separate data set.
Assay [10] concerns the target GluA3 (AMPA receptor amino-terminal domain). Briefly: AUC.
Assay [11] has as its target EndoH-digested GluA2S. Briefly: AUC.
Assay [12] deals with EndoH-digested GluA2S. Briefly: AUC. This is another data set of the same source.
Assay [13] deals with EndoH-digested GluA2S. Briefly: AUC. This is another data set of the same source.
In assay [14] the target is EndoH-digested GluA2S. Briefly: AUC. The source holds these as a separate data set.
Assay [15] has as its target EndoH-digested GluA2S. Briefly: AUC. This is another data set of the same source.

Several values for one entry are separate records, joined by “and”; a condition that tells them apart may be missing. Equal values may be shown once. Read-outs that look alike come from different tables or passages of the source.

Chain of EndoH-DyLight (GluA2 ATD, EndoH-digested, DyLight-labeled) (P19491 22-883): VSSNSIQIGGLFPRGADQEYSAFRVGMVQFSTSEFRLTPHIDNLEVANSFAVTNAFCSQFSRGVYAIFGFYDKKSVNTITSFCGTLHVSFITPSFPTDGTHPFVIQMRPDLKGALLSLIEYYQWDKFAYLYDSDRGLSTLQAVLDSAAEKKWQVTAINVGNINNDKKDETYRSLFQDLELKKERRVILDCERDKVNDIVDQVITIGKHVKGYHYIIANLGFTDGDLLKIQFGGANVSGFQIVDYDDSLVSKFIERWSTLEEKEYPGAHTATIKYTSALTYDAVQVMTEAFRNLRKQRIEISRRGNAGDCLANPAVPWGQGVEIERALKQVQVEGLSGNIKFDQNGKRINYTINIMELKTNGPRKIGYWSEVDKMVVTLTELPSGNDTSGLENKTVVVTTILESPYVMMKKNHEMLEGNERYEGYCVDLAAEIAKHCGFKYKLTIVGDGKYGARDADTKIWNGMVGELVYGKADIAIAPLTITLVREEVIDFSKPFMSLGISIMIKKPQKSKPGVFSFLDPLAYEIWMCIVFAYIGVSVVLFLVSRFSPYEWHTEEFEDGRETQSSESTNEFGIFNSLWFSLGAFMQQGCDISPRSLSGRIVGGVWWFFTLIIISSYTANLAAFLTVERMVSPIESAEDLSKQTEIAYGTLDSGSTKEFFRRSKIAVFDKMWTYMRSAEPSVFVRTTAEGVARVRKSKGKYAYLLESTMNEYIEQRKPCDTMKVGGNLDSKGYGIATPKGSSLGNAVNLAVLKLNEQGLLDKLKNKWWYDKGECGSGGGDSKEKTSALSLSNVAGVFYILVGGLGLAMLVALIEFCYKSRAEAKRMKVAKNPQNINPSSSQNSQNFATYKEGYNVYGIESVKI
Chain of EndoH-digested GluA2S (P19491 22-883): as above
Chain of GluA2S, GluA2 ATD with complex glycosylation (293T) (P19491 22-883, one chain of several): as the sequence (P19491 22-883) above
Chain of EndoH-digested, FAM-labeled GluA2S (P19491 22-883): as above
Chain of GluA3 (AMPA receptor amino-terminal domain) (P19492 23-888): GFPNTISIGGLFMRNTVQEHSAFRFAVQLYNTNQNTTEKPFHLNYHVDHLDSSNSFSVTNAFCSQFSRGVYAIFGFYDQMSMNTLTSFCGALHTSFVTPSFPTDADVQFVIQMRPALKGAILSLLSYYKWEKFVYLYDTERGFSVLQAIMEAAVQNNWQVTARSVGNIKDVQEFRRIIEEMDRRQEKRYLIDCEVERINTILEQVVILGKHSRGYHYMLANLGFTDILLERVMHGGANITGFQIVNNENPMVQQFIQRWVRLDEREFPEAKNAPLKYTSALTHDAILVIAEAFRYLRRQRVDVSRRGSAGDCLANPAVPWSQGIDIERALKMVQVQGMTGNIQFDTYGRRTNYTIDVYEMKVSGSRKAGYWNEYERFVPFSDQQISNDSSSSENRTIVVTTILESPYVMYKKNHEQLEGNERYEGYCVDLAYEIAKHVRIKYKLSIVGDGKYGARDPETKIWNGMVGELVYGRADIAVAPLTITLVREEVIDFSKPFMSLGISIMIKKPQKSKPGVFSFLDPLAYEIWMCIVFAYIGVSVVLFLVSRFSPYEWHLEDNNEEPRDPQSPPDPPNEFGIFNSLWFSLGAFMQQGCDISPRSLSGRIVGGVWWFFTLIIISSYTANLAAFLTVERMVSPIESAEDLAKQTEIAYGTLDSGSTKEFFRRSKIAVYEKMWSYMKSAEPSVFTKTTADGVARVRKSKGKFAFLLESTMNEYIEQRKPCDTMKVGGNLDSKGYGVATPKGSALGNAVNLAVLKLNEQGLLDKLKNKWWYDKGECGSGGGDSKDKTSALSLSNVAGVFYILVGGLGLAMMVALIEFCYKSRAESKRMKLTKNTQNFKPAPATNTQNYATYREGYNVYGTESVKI
Chain of GluA2 ATD, GnTI− (P19491 22-883): as the sequence (P19491 22-883) above
Chain of GluA2S-FAM (P19491 22-883): as above
Chain of GluA2L (P19491 22-883): as above

GluA2L (domain or fragment) returned a Kd in assay [1] of 5.5 nM.
In turn, GluA2S-FAM (domain or fragment) displayed a Kd in assay [2] of 14.9 nM.
In the case of “EndoH-DyLight (GluA2 ATD, EndoH-digested, DyLight-labeled) (domain or fragment)”, in [3], the Kd is 10.8 nM and 11.3 nM and 8.43 nM.
GluA2 ATD, GnTI− (domain or fragment) registered a Kd in assay [4] of 11 nM.
“GluA2S, GluA2 ATD with complex glycosylation (293T) (domain or fragment)”: the Kd in [5] is 8.3 nM. In addition, in assay [6], the Kd amounted to 6 nM and the stoichiometry N came to 2.
Consider “EndoH-digested, FAM-labeled GluA2S (domain or fragment)”, for which the Kd in assay [7] came out at 13 nM; in assay [8], 10 nM; in assay [9], 2.5 nM.
For the substance “GluA3 (AMPA receptor amino-terminal domain) (domain or fragment)”, in [10], the Kd was found to be 5600 nM and the stoichiometry N stood at 2.
As to “EndoH-digested GluA2S (domain or fragment)”, the Kd in [11] is 30 nM; in [12], 12 nM and 8.3 nM and 10 nM; in assay [13] it was 12 nM; in assay [14], 17 nM; in assay [15], 160 nM and 284 nM. In [15], the stoichiometry N stood at 2.
